The record followed here is patent US20250213702A1.

This test deals with IL-2Rαβγ on mouse CTLL-2 cells (mouse) (UniProt P01590). Description: cell-based or functional assay.
Sequence of UniProt P01590 (P01590 22-268, chain 1 of 3): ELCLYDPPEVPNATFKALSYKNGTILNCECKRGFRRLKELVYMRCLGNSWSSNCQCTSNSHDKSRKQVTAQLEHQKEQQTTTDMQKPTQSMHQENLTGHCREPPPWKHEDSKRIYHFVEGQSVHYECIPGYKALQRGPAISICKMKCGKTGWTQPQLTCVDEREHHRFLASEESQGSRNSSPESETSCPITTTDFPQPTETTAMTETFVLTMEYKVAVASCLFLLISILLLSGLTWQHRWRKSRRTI
Sequence of UniProt P01590 (P16297 27-539, chain 2 of 3, further chain): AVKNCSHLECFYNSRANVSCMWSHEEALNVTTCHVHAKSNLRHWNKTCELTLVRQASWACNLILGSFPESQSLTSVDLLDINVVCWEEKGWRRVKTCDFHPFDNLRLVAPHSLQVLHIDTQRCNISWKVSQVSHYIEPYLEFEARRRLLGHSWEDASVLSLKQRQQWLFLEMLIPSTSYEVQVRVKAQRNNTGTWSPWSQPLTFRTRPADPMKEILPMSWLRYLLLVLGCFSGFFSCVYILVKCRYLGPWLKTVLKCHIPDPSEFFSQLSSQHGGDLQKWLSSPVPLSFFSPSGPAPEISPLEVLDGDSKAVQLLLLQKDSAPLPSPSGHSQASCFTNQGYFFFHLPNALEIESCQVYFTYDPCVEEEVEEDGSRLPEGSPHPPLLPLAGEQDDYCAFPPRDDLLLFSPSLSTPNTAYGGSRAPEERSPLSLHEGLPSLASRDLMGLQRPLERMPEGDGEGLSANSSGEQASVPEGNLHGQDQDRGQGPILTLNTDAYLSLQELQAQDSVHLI
Sequence of UniProt P01590 (P34902 23-369, chain 3 of 3, further chain): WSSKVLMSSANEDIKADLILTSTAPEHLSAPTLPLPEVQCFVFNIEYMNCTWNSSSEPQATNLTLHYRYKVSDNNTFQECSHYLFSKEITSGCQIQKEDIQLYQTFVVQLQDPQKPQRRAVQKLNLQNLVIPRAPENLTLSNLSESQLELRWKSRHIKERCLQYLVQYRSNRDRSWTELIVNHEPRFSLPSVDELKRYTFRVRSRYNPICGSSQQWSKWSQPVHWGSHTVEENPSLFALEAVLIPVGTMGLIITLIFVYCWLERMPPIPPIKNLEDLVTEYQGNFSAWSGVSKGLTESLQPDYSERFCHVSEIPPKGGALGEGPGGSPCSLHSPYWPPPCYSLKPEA

With “reference rhIL-2 (purchased from Beijing Solarbio Science & Technology Co., Ltd., catalog number: P00020) (from UniProt P60568 21-153) (ligand)”, the EC50 (ng/mL) of STAT5 phosphorylation assay (CTLL-2 cells) worked out at 0.38 ng/mL and the EC50 (ng/mL), STAT5 phosphorylation assay (CTLL-2 cells) was determined as 0.18 ng/mL.
